Experimental findings from patent publication US20040234498A1 (Genentech, published 2004) are described below.

For assay [1], the target named is T1, TNFR1 immunoadhesin (TNFR1 ECD fused to hinge and Fc portion of human IgG) (human, UniProt P19438 30-211, limits assumed).
T1 construct: extracellular domain; also called TNFR1-IgG; not shown: hinge and Fc portion of human IgG, as described in Ashkenazi et al. 1991
T1 sequence (looked up): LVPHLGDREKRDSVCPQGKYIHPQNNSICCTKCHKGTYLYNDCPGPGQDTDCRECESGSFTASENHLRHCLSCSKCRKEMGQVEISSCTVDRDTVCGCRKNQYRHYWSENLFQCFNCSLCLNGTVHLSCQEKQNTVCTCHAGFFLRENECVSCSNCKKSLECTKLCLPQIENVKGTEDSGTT
Put plainly: FACS on HUVEC cells (endogenous DNA19355 transcripts). Here is the method: The DNA19355 polypeptide was identified in a human umbilical vein endothelial cell (HUVEC) library, and the DNA19355 polypeptide transcripts are readily detectable in HUVEC by RT-PCR (data not shown). […] HUVEC cells were purchased from Cell Systems (Kirkland, Wash.) and grown in a 50:50 mix of Ham's F12 and Low Glucose DMEM media containing 10% fetal bovine serum, 2 mM L-glutamine, 10 mM Hepes, and 10 ng/ml basic FGF. Cells were FACS sorted with PBS, hGITR-IgG, TNFR1-IgG or Fas-IgG as a primary antibody and goat anti-human F(ab′)2 conjugated to phycoerythrin (CalTag, Burlingame, Calif.).

The target in assay [2] is T2, human GITR (hGITR), full length, on cells (human, UniProt Q9Y5U5 26-241).
T2 sequence (looked up): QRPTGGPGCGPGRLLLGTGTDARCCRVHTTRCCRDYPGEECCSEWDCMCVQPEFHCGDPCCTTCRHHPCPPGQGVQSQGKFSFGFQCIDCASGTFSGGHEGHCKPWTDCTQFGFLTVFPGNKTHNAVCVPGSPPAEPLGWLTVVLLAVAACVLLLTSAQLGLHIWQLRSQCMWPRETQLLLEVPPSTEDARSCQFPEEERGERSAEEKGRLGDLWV
Put plainly: cell-based or functional assay.

For assay [3], the target named is T3, CD95 immunoadhesin (CD95 ECD fused to hinge and Fc portion of human IgG) (human, UniProt P25445 26-173, limits assumed).
T3 construct: extracellular domain; also called Fas-IgG; Fas/Apo1; not shown: hinge and Fc portion of human IgG, as described for TNFR1 in Ashkenazi et al. 1991
T3 sequence (looked up): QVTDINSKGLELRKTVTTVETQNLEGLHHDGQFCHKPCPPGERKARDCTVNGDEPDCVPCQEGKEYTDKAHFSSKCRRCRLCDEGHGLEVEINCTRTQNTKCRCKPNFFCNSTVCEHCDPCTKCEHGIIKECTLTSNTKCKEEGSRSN
Put plainly: co-precipitation with protein A-sepharose, SDS-PAGE, autoradiography. On the procedure: (§1) A soluble DNA19355 polypeptide was also prepared by expressing the ECD in E. coli cells (as described in Example 3 above). The soluble DNA19355 ECD molecule was then labeled with ¹²⁵I. For comparison, immunoadhesin constructs were also made of the following TNF receptor family members: CD95, DR4, DR5, TNFR1, TNFR2, and Apo-3. CD95, DR4, DR5, TNFR1, TNFR2, and Apo-3 immunoadhesins were prepared by fusing each receptor's ECD to the hinge and Fc portion of human IgG, as described previously for TNFR1 [Ashkenazi et al., Proc. Natl. Acad. Sci., 88:10535-10539 (1991)]. The respective TNF receptor family members are described (and relevant references cited) in the Background of the Invention section.
(§2) For the co-precipitation assay, each immunoadhesin (5 microgram) was incubated with ¹²⁵I-labeled soluble DNA19355 polypeptide (1 microgram) for 1 hour at 24° C., followed by protein A-sepharose for 30 minutes on ice. The reaction mixtures were spun down and washed several times in PBS, boiled in SDS-PAGE buffer containing 20 mM dithiothreitol and then resolved by SDS-PAGE and autoradiography.

The target in assay [4] is T4, DR4 immunoadhesin (DR4 ECD fused to hinge and Fc portion of human IgG) (human, UniProt O00220 24-239, limits assumed).
T4 construct: extracellular domain; not shown: hinge and Fc portion of human IgG, as described for TNFR1 in Ashkenazi et al. 1991
T4 sequence (looked up): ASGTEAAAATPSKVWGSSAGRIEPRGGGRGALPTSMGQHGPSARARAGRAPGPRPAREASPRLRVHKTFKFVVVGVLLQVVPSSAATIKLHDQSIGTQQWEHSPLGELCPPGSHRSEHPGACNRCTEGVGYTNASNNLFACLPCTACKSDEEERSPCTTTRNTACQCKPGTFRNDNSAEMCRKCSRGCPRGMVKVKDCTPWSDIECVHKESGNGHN
Described as above. Here is the method: as §1, §2

Assay [5] addresses T5, DR5 immunoadhesin (DR5 ECD fused to hinge and Fc portion of human IgG) (human, UniProt O14763 56-210, limits assumed).
T5 construct: extracellular domain; also called Apo-2; not shown: hinge and Fc portion of human IgG, as described for TNFR1 in Ashkenazi et al. 1991
The description is as above. On the procedure: as §1, §2

Assay [6] addresses T1, TNFR1 immunoadhesin (TNFR1 ECD fused to …). Described as above. On the procedure: as §1, §2
Assay [7] concerns the target T6, TNFR2 immunoadhesin (TNFR2 ECD fused to hinge and Fc portion of human IgG) (human, UniProt P20333 23-257, limits assumed).
T6 construct: extracellular domain; not shown: hinge and Fc portion of human IgG, as described for TNFR1 in Ashkenazi et al. 1991
T6 sequence (looked up): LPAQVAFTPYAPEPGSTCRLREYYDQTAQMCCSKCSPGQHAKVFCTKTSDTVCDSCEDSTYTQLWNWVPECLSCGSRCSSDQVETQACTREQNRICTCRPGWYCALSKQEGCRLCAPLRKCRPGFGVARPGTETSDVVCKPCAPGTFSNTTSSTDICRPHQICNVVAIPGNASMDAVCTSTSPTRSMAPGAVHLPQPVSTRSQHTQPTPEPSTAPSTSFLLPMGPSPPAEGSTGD
The assay is described as above. Here is the method: as §1, §2

In assay [8] the target is T7, Apo-3 immunoadhesin (Apo-3 ECD fused to hinge and Fc portion of human IgG) (human, UniProt Q93038 25-199).
T7 construct: extracellular domain; also called DR3; wsl-1; not shown: hinge and Fc portion of human IgG, as described for TNFR1 in Ashkenazi et al. 1991
T7 sequence (looked up): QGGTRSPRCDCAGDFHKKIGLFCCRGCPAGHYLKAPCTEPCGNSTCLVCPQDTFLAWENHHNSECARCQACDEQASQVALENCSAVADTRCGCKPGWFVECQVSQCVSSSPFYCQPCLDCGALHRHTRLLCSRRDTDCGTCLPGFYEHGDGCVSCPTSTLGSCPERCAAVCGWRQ
The description is as above. Here is the method: as §1, §2

B1: full length DNA19355 polypeptide on cells (ligand)
chain: MCLSHLENMPLSHSRTQGAQRSSWKLWLFCSIVMLLFLCSFSWLIFIFLQLETAKEPCMAKFGPLPSKWQMASSEPPCVNKVSDWKLEILQNGLYLIYGQVAPNANYNDVAPFEVRLYKNKDMIQTLTNKSKIQNVGGTYELHVGDTIDLIFNSEHQVLKNNTYWGIILLANPQFIS
notes: also called full-length DNA19355 protein; GLITTER
Turning to B1, in assay [1], the binding result was “no binding”.

B2: soluble DNA19355 polypeptide (His10-tagged extracellular region, amino acids 52 to 177, expressed in E. coli) (ligand)
chain: MGHHHHHHHHHHSSGHIDDDDKHMETAKEPCMAKFGPLPSKWQMASSEPPCVNKVSDWKLEILQNGLYLIYGQVAPNANYNDVAPFEVRLYKNKDMIQTLTNKSKIQNVGGTYELHVGDTIDLIFNSEHQVLKNNTYWGIILLANPQFIS
modifications: 125I-labeled (radioiodinated) in the co-precipitation assay
notes: also called soluble DNA19355 ECD molecule; radioiodinated soluble DNA19355 polypeptide
Consider B2, for which the “secreted TNF-alpha levels from primary human T cells (ELISA of culture supernatants)” value in assay [2] is around 20 fold. Besides, the binding result in assay [3], in assay [4], in assay [5], in assay [6], in assay [7] and in assay [8] was “no binding” each time.
